Measured values: US20170355766A1 (Xencor, published 2017)

T1: FcγRIIaR (human, UniProt P12318)
T1 construct: recombinant receptor protein with 6xHis and GST tags; also called R131 FcγRIIa
T1 sequence (receptor, looked up): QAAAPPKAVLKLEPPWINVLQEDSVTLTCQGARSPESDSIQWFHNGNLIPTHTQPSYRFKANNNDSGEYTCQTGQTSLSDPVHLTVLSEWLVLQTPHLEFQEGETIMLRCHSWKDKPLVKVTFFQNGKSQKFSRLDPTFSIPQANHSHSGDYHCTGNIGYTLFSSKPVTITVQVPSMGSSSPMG

T2: human FcγRIIb receptor protein (R&D Systems) (human, UniProt P31994 46-217)
T2 construct: Analyte injected over antibodies captured on a protein A/G chip (Biacore); also called CD32b
T2 sequence (looked up): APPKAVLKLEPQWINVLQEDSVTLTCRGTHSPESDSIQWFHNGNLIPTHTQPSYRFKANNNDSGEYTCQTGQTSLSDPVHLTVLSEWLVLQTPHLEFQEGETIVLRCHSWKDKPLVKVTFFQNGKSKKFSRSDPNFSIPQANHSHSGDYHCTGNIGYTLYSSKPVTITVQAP

B1: P329E (antibody, human IgG1, kappa)
heavy: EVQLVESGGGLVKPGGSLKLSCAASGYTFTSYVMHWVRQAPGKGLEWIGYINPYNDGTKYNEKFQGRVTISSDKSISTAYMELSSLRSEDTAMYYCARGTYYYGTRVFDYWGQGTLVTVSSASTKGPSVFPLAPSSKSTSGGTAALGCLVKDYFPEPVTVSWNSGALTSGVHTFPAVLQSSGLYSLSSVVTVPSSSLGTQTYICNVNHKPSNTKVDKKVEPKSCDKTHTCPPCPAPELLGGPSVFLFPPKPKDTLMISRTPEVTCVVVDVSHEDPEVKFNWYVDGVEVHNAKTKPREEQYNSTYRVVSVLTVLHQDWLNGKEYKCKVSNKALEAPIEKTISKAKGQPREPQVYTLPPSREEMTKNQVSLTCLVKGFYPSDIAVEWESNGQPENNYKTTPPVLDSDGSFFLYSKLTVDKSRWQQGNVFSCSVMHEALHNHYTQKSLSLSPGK
light: DIVMTQSPATLSLSPGERATLSCRSSKSLQNVNGNTYLYWFQQKPGQSPQLLIYRMSNLNSGVPDRFSGSGSGTEFTLTISSLEPEDFAVYYCMQHLEYPITFGAGTKLEIKRTVAAPSVFIFPPSDEQLKSGTASVVCLLNNFYPREAKVQWKVDNALQSGNSQESVTEQDSKDSTYSLSSTLTLSKADYEKHKVYACEVTHQGLSSPVTKSFNRGEC
notes: HuAM4G7 IgG1 Fc variant
B2: S267E/L328I (antibody, human IgG1, kappa)
heavy: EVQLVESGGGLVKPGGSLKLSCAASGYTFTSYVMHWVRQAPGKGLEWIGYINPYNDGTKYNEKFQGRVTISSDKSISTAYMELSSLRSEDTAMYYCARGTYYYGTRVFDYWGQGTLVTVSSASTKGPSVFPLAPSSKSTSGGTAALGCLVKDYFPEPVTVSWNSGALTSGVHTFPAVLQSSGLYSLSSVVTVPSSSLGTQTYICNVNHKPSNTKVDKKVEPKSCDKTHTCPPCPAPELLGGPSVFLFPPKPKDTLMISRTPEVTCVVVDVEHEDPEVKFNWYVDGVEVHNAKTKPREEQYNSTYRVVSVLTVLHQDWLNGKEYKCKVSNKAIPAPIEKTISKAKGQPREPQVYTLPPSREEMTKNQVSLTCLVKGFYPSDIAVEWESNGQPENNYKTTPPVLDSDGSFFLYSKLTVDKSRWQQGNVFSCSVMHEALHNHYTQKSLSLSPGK
light: DIVMTQSPATLSLSPGERATLSCRSSKSLQNVNGNTYLYWFQQKPGQSPQLLIYRMSNLNSGVPDRFSGSGSGTEFTLTISSLEPEDFAVYYCMQHLEYPITFGAGTKLEIKRTVAAPSVFIFPPSDEQLKSGTASVVCLLNNFYPREAKVQWKVDNALQSGNSQESVTEQDSKDSTYSLSSTLTLSKADYEKHKVYACEVTHQGLSSPVTKSFNRGEC
notes: HuAM4G7 IgG1 Fc variant
B3: S239Q (antibody, human IgG1, kappa)
heavy: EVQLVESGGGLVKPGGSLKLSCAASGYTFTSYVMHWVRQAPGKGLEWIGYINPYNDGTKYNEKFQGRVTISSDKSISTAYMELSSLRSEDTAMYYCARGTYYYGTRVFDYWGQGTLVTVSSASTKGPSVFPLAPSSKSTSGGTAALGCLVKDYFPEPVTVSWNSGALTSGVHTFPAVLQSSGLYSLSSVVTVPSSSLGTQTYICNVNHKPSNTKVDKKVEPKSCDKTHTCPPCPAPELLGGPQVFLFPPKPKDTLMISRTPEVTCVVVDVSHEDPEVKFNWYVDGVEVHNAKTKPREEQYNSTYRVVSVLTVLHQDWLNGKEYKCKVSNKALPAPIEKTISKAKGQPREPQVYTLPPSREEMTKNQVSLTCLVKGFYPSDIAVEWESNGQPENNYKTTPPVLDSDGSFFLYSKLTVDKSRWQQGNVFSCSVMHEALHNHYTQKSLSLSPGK
light: DIVMTQSPATLSLSPGERATLSCRSSKSLQNVNGNTYLYWFQQKPGQSPQLLIYRMSNLNSGVPDRFSGSGSGTEFTLTISSLEPEDFAVYYCMQHLEYPITFGAGTKLEIKRTVAAPSVFIFPPSDEQLKSGTASVVCLLNNFYPREAKVQWKVDNALQSGNSQESVTEQDSKDSTYSLSSTLTLSKADYEKHKVYACEVTHQGLSSPVTKSFNRGEC
notes: HuAM4G7 IgG1 Fc variant
B4: S298D (antibody, human IgG1, kappa)
heavy: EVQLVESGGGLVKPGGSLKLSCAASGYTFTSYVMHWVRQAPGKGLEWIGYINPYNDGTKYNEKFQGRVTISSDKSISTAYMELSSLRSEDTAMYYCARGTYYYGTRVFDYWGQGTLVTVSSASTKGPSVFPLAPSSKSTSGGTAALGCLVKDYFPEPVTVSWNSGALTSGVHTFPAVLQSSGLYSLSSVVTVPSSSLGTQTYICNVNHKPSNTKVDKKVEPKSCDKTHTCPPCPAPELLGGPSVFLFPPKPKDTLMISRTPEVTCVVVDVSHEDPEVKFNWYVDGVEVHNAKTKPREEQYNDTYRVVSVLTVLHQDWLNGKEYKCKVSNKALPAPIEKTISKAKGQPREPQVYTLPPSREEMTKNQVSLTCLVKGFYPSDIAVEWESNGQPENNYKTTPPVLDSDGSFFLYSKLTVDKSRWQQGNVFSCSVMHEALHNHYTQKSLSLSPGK
light: DIVMTQSPATLSLSPGERATLSCRSSKSLQNVNGNTYLYWFQQKPGQSPQLLIYRMSNLNSGVPDRFSGSGSGTEFTLTISSLEPEDFAVYYCMQHLEYPITFGAGTKLEIKRTVAAPSVFIFPPSDEQLKSGTASVVCLLNNFYPREAKVQWKVDNALQSGNSQESVTEQDSKDSTYSLSSTLTLSKADYEKHKVYACEVTHQGLSSPVTKSFNRGEC
notes: HuAM4G7 IgG1 Fc variant
B5: S239N (antibody, human IgG1, kappa)
heavy: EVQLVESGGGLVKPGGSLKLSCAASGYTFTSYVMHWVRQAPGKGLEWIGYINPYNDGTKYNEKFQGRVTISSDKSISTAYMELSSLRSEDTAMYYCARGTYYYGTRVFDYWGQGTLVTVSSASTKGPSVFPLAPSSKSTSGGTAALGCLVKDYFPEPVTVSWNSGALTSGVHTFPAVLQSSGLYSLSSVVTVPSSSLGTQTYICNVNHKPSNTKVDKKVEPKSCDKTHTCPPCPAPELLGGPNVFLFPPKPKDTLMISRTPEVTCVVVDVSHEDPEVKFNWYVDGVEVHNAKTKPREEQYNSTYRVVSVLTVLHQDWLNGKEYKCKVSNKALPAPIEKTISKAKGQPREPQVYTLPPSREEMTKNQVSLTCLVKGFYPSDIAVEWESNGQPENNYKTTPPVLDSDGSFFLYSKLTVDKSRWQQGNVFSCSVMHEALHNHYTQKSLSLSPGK
light: DIVMTQSPATLSLSPGERATLSCRSSKSLQNVNGNTYLYWFQQKPGQSPQLLIYRMSNLNSGVPDRFSGSGSGTEFTLTISSLEPEDFAVYYCMQHLEYPITFGAGTKLEIKRTVAAPSVFIFPPSDEQLKSGTASVVCLLNNFYPREAKVQWKVDNALQSGNSQESVTEQDSKDSTYSLSSTLTLSKADYEKHKVYACEVTHQGLSSPVTKSFNRGEC
notes: HuAM4G7 IgG1 Fc variant
B6: S267E/N325L (antibody, human IgG1, kappa)
heavy: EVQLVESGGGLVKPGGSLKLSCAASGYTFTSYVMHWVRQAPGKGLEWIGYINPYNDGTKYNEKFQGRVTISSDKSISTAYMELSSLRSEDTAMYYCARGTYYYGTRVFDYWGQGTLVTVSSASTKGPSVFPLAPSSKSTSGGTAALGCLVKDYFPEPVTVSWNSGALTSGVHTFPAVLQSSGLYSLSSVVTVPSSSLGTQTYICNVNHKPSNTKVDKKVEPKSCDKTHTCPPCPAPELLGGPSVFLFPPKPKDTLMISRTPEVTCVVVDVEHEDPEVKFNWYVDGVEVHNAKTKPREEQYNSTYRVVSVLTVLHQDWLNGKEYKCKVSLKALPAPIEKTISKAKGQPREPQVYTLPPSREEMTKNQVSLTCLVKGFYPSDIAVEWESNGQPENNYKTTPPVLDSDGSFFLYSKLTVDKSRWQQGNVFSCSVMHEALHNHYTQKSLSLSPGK
light: DIVMTQSPATLSLSPGERATLSCRSSKSLQNVNGNTYLYWFQQKPGQSPQLLIYRMSNLNSGVPDRFSGSGSGTEFTLTISSLEPEDFAVYYCMQHLEYPITFGAGTKLEIKRTVAAPSVFIFPPSDEQLKSGTASVVCLLNNFYPREAKVQWKVDNALQSGNSQESVTEQDSKDSTYSLSSTLTLSKADYEKHKVYACEVTHQGLSSPVTKSFNRGEC
notes: HuAM4G7 IgG1 Fc variant
B7: S267E/L328H (antibody, human IgG1, kappa)
heavy: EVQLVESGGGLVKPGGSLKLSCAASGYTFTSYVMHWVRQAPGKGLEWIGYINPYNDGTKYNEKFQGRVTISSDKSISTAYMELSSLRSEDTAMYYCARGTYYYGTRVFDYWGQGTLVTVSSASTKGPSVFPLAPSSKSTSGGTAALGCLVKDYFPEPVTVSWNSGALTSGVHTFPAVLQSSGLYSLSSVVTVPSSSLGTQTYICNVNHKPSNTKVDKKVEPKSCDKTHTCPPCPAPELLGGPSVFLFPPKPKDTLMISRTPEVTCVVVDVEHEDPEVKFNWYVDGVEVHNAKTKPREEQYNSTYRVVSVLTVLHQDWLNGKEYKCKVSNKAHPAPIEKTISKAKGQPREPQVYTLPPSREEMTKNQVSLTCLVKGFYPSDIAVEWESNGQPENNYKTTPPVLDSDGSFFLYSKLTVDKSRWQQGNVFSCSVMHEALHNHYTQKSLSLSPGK
light: DIVMTQSPATLSLSPGERATLSCRSSKSLQNVNGNTYLYWFQQKPGQSPQLLIYRMSNLNSGVPDRFSGSGSGTEFTLTISSLEPEDFAVYYCMQHLEYPITFGAGTKLEIKRTVAAPSVFIFPPSDEQLKSGTASVVCLLNNFYPREAKVQWKVDNALQSGNSQESVTEQDSKDSTYSLSSTLTLSKADYEKHKVYACEVTHQGLSSPVTKSFNRGEC
notes: HuAM4G7 IgG1 Fc variant
B8: V266D (antibody, human IgG1, kappa)
heavy: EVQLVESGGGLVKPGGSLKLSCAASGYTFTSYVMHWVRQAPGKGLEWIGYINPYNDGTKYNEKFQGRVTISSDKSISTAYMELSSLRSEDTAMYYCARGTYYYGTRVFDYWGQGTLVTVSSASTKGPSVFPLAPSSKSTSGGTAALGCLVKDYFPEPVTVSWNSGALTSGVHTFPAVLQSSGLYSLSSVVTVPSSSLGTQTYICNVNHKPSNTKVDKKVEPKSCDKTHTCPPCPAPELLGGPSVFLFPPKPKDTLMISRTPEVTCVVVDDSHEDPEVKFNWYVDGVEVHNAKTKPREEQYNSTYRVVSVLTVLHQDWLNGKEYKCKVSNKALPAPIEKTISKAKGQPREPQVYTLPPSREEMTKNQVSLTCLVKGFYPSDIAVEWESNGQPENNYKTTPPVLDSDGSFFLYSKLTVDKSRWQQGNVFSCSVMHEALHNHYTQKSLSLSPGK
light: DIVMTQSPATLSLSPGERATLSCRSSKSLQNVNGNTYLYWFQQKPGQSPQLLIYRMSNLNSGVPDRFSGSGSGTEFTLTISSLEPEDFAVYYCMQHLEYPITFGAGTKLEIKRTVAAPSVFIFPPSDEQLKSGTASVVCLLNNFYPREAKVQWKVDNALQSGNSQESVTEQDSKDSTYSLSSTLTLSKADYEKHKVYACEVTHQGLSSPVTKSFNRGEC
notes: HuAM4G7 IgG1 Fc variant

Key:
FcγRIIaR = biological target: T1, FcγRIIaR; assay: SPR (Biacore)
[1] = biological target: T2, human FcγRIIb receptor protein (R&D …); assay: SPR (Biacore)

Binder | Fold FcγRIIaR (FcγRIIaR) [fold] | Fold FcγRIIb [1] [fold]
B1 | 0.0859 | 0.147
B2 | 74 | 53.4
B3 | 0.853 | 0.729
B4 | 1.45 | 0.797
B5 | 0.867 | 1.45
B6 | 41.5 | 31.5
B7 | 4.64 | 5.17
B8 | 0.704 | 0.147
